The data set deals with SOX2 (hSOX2) (human). Briefly: EMSA. The following applies: Plasmid EMSA: 60 mM KCl, 12 mM Hepes pH 7.9, 2 mM MgCl2, 1 mM DTT, 0.12 mM EDTA, 12% glycerol, 0.01% NP40, 10 ng/uL DNA, 15 min 30 C; 0.8% agarose 0.5x TBE. ….

pKd: −log10 of the molar value.

With SOX2 non-specific-site EMSA probe, the binding signal (fold higher Kd than specific site) is 30.

Turning to SOX2 specific-site EMSA probe, the pKd was 8.70.

The values above are taken from paper PMC8184831.
